Results published in US12708677B2, “Contrast agents, methods for preparing contrast agents, and methods of imaging” (Georgia State University Research Foundation, Inc., priority 2008, dated 2026).

B1: CA1.CD2: designed Gd^3+-binding protein, domain 1 of rat CD2 with ligand residues Glu15, Glu56, Asp58, Asp62, Asp64 (protein)
chain: RDSGTVWGALGHGIELNIPNFQMTDDIDEVRWERGSTLVAEFKRKMKPFLKSGAFEIDANGDLDIKNLTRDDSGTYNVTVYSTNGTRILNKALDLRILE
B2: Gd-CA1.CD2: CA1.CD2 in complex with Gd^3+ (protein)
chain: B1 chain

Columns and labels:
[1] = Mg^2+ binding constant, competition assays
Description: (§1) Since metal selectivity for Gd^3+ over other physiological metal ions is for minimizing the toxicity of the agents,^39, 40 we measured metal binding constants using dye-competition assays with various chelate-metal buffer systems (Table 1). Low limit metal binding affinities of the proteins were also estimated based on Tb^3+-sensitized FRET and competition assays. […] This is considered for in vivo applications of the contrast agent as the phosphate concentration in serum is maintained at ~1.3 mM.^6, 9 The stability of a contrast agent in blood circulation is another factor for in vivo applications. We characterized the stability by incubating Gd-CA1.CD2 with 75% human serum at 37° C. for 3 and 6 hours.

[2] = Gd^3+-binding affinity, dye competition titration with Fluo-5N; conditions: phosphate 50 mM
Protocol: Gd^3+-binding Affinity Determination, […]-binding affinity of CA1.CD2 was determined by a competition titration with Fluo-5N applied as a Gd^3+ indicator. The fluorescence spectra of Fluo-5N were obtained with a fluorescence spectrophotometer (Photon Technology International, Inc.) with a 10 mm path length quartz cell at 22° C. Fluo-5N emission spectra were acquired at […] to 650 nm with an excitation at 488 nm. […] The experiment was performed with a gradual addition of CA1.CD2. An apparent constant, Kapp, was estimated by fitting the fluorescence emission intensity of Fluo-5N at 520 nm with different CA1.CD2 concentrations as a 1 to 1 binding model. Gd^3+-binding affinity of CA1.CD2, Kd2, was calculated with the following equation: […]
Since metal selectivity for Gd^3+ over other physiological metal ions is for minimizing the toxicity of the agents,^39, 40 we measured metal binding constants using dye-competition assays with various chelate-metal buffer systems (Table 1). […]
Gd^3+-binding affinities of CA1.CD2 and its pegylated variants were determined by a competition titration with Fluo-5N applied as a Gd^3+ indicator (Yang et al., JACS, 2008). The fluorescence spectra of Fluo-5N were obtained with a fluorescence spectrophotometer (Photon Technology International, Inc.) with a 10 mm path length quartz cell at 22° C. […]

[3] = Zn^2+ binding affinity, dye competition assay (FluoZin)
Description: FIG. 1.6: Measurement of metal binding constants. Gd^3+ binding affinity (FIG. 1.6a) and Zn^2+ binding affinity (FIG. 1.6b) of CA1.CD2 measured by dye competition assays. CA1.CD2 stock solution was gradually added into the 1:1 dye-metal complex to compete for the dye-bound metal ions. The insets show the titration curve for the dye indicators fluo 5N (FIG. 1.6a) and FluoZin (FIG. 1.6b), respectively. (FIG. 1.6c) La^3+ binding affinity obtained by Aromatic residue sensitized Tb^3+ luminescence energy transfer. The Tb^3+ fluorescence of a protein-Tb^3+ mixture decreases with the addition of La^3+. The La^3+ concentrations are 0, 0.30, 0.76, 5.95, 11.03, and 28.95 μM from top to bottom. The Tb^3+ fluorescence decrease competition was fitted (line) by a normal competition plus a nonspecific quenching effect (inset).
as §1
Metal binding affinity for Ca^2+ and Zn^2+ were determined using similar competition methods and specific dyes with proper Kd values.

[4] = Protein solubility by concentrating to precipitation; type: physicochemical; conditions: current formulation
Protocol: Protein was expressed in E. coli as inclusion body and purified using urea refolding and ion-exchange column. N15 labeled protein was expressed in SV medium as GST fusion (Yang et al., Biochem 2006) and purification was by GST-4B affinity column and SP column. Protein was verified by mass spectrometry. Protein concentration was calculated using extinction coefficient of w.t. CD2 of 11,000 (Ye et al., 2001). Protein solubility was determined by concentrating proteins to reach to precipitation using speed vac.

[5] = Dynamic NMR, rotational correlation time and S^2 order; type: physicochemical
Protocol: Therefore, the measured correlation time of the protein directly reflects the τR of the metal binding site. In contrast, the flexible metal binding loop in CA9.CD2 has an S^2 order value of 0.3-0.4, which is very different from CA1.CD2 with an S^2 value very close to that of the backbone of the protein.
Pulse field diffusion NMR was applied to measure the hydrodynamic radii of the protein (Lee et al., BBA 2003) with Protein samples CA1.CD2 and its variants of 0.2 mM in buffer, Lysozme and diaxone were used as an external and internal reference for calibration. The correlation size of the protein was measured using TauC pulse sequence developed by the Prestegard lab at UGA using ^15N labeled protein.

[6] = Serum stability in human serum at 37° C., SDS-PAGE; type: in vitro ADME; conditions: 75% human serum, 37° C., 6 hours
Protocol: Serum stability. […] The degradation of the protein (disappearance of 12 kDa protein band) was analyzed by SDS-PAGE and visualized by coomassie blue staining. In parallel, the degradation of the protein was also analyzed by immunoblot using antibodies OX54 or PabCD2. The identities of the 12 kDa bands as CA1.CD2 were always verified by immunobloting using antibody PabCD2.
[…] The degradation of the protein (disappearance of 12 kDa protein band) was analyzed by SDS-PAGE and visualized by coomassie blue staining for protein and idiol staining for PEG moiety. In parallel, the degradation of the protein was also analyzed by immunoblot using antibodies OX54 or PabCD2. The identities of CA1.CD2 and pegylated variants were verified by immunoblotting using antibody PabCD2.and idiol staining.

[7] = In vitro r1 and r2 proton relaxivity; type: physicochemical
Protocol: Determination of r1 and r2 Relaxivity Values, Relaxation times, T1 and T2, were determined at 1.5, 3, 9.4 Tesla using a Siemens whole-body MR system (1.5, 3T) or a Bruker MRI scanner (9.4T). T1 was determined using inversion recovery and T2 using a multi-echo Carr-Purcell-Meiboom-Gill (CPMG) sequence. The contrast agent samples (200 μl) with different concentrations were placed in eppendorf tubes. The tubes were placed on a tube rack, which was placed in MRI scanners for the measurement of relaxation times r1 and r2 were calculated based on r1(mM^−1 S^−1)=(1/T1s−1/T1c)/C and r2(mM^−1 S^−1)=(1/T2s−1/T2c)/C, where T1s and T2s are relaxation times with contrast agent and T1c and T2c are relaxation times without contrast agent. C is the concentration of contrast agent in mM (the measured Gd^3+ concentrations by ICP-MS). […]

Molecule | Metal binding constant (Log Ka) Mg^2+ [1] | disassociation constant (Kd) for Mg^2+ [1] [mM] | Log (KGd/KMg) ([1]; metal selectivity) | removal of Gd^3+ from the protein by phosphate [2] | Metal binding constant (Log Ka) Zn^2+ [3] | disassociation constant (Kd) for Zn^2+ [3] [mM] | Log (KGd/KZn) ([3]; metal selectivity) | solubility [4] | overall correlation time ([5]; absence of bound metal ions) [ns] | overall correlation time ([5]; presence of bound metal ions) [ns] | stability of protein-Gd complex in serum [6] | r1 relative to Gd-DTPA ([7]; 1.5T) | r1 ([7]; B0 1.5 T) | r1 ([7]; B0 1.5 T, listed as CA1) [mM⁻¹ s⁻¹] | r1 ([7]; B0 3 T) [mM⁻¹ s⁻¹] | r1 ([7]; B0 9.4 T) [mM⁻¹ s⁻¹]
B1 | <2.0 | > 10 | >10.06 | not able to remove the Gd^3+ from the protein | 6.72 | 0.00019 | 5.34 | ~ 0.7 mM | 9.20 | 9.08 |  |  |  |  |  | 
B2 |  |  |  |  |  |  |  |  |  |  | remained intact | about 20 fold | up to 117 mM^−1 s^−1 | 117 | 48 | 6
